Results on 26 molecules are retold here after patent US20180155451A1 (published 2018).

B1: GpH7-B3 variant E269_04F/GpL16-k0 (antibody, human IgG1, kappa)
heavy: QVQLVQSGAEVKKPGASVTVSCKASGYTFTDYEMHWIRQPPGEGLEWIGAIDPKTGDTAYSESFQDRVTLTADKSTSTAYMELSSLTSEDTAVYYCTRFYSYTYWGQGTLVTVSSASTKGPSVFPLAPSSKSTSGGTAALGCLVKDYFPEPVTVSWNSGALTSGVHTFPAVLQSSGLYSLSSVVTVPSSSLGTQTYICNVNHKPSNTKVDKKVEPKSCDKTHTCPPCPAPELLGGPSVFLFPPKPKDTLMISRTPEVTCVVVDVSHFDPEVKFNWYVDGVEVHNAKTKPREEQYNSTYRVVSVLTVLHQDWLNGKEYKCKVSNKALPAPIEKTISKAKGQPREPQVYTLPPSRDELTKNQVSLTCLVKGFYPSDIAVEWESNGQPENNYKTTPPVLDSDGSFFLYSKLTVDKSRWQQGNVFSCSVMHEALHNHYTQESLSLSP
light: DIVMTQSPLSLPVTPGEPASISCQASESLVHSNRNTYLHWYLQKPGQSPQLLIYKVSNRFSGVPDRFSGSGSGTDFTLKISRVEAEDVGVYYCSQNTHVPPTFGQGTKVEIERTVAAPSVFIFPPSDEQLKSGTASVVCLLNNFYPREAKVQWKVDNALQSGNSQESVTEQDSKDSTYSLSSTLTLSKADYEKHKVYACEVTHQGLSSPVTKSFNRGEC
notes: homodimerized; also called Ho Ab E269_04F
B2: GpH7-B3 variant A327_03V/GpL16-k0 (antibody, human IgG1, kappa)
heavy: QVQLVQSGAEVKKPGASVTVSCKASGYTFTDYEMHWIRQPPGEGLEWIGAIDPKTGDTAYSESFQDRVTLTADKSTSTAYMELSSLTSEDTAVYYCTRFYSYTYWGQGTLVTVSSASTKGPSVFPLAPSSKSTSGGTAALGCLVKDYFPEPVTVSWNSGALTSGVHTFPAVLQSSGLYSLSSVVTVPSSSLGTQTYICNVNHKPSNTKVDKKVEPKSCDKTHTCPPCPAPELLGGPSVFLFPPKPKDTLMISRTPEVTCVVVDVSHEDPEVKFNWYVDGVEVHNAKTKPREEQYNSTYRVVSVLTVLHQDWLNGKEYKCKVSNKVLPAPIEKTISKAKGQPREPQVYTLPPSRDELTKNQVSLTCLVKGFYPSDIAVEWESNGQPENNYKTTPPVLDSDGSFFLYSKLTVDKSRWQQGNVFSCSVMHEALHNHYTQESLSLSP
light: B1 light
notes: homodimerized; also called Ho Ab A327_03V
B3: GpH7-B3 variant A330_14T/GpL16-k0 (antibody, human IgG1, kappa)
heavy: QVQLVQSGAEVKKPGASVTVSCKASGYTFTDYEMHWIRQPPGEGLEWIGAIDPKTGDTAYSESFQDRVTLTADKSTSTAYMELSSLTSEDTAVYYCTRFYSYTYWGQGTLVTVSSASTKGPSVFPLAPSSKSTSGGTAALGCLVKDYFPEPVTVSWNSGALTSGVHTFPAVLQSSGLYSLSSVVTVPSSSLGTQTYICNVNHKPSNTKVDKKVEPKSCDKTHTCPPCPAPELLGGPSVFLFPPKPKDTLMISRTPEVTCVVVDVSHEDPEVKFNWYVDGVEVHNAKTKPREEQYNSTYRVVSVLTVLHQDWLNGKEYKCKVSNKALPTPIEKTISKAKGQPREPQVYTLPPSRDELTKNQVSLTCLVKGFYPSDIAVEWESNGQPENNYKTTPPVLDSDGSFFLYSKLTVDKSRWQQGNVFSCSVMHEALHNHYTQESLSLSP
light: B1 light
notes: homodimerized; also called Ho Ab A330_14T
B4: GpH7-B3 variant A327_09D/GpL16-k0 (antibody, human IgG1, kappa)
heavy: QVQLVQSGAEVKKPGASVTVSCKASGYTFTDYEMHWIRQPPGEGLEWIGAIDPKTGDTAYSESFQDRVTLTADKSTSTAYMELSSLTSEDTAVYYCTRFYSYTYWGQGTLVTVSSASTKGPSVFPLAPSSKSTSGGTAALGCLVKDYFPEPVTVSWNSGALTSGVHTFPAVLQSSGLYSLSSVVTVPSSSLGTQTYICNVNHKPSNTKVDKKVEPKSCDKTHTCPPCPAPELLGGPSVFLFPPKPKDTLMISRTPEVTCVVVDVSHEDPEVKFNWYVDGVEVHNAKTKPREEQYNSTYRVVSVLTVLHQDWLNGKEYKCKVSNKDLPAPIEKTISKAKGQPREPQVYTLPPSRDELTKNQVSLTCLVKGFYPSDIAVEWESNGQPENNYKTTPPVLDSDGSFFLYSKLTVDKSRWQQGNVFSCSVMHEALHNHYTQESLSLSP
light: B1 light
notes: homodimerized; also called Ho Ab A327_09D
B5: GpH7-B3 variant A327_07I/GpL16-k0 (antibody, human IgG1, kappa)
heavy: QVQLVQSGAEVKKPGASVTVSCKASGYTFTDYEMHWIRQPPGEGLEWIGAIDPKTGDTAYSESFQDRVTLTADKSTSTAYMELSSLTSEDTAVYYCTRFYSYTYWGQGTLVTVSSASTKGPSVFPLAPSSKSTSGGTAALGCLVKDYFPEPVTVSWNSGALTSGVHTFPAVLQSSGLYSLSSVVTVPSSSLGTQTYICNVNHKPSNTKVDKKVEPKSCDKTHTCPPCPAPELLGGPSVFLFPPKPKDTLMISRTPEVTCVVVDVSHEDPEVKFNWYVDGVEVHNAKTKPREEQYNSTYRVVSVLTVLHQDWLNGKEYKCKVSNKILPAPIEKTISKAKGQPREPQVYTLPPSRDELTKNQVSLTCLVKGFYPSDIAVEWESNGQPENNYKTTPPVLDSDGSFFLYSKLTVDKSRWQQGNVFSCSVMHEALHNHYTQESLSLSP
light: B1 light
notes: homodimerized; also called Ho Ab A327_07I
B6: GpH7-B3 variant A327_10E/GpL16-k0 (antibody, human IgG1, kappa)
heavy: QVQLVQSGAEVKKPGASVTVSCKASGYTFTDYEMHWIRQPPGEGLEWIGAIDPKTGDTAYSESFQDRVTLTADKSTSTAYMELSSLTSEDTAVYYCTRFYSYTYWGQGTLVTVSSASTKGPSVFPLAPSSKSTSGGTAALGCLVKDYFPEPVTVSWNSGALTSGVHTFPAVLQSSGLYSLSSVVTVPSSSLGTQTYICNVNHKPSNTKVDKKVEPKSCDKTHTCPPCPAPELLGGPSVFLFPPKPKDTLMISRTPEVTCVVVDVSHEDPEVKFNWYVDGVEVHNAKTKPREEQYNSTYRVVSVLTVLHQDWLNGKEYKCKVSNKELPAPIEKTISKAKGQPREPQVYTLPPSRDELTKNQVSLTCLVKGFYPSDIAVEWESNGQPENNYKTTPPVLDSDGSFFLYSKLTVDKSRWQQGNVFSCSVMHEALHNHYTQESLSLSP
light: B1 light
notes: homodimerized; also called Ho Ab A327_10E
B7: GpH7-B3 variant A330_09D/GpL16-k0 (antibody, human IgG1, kappa)
heavy: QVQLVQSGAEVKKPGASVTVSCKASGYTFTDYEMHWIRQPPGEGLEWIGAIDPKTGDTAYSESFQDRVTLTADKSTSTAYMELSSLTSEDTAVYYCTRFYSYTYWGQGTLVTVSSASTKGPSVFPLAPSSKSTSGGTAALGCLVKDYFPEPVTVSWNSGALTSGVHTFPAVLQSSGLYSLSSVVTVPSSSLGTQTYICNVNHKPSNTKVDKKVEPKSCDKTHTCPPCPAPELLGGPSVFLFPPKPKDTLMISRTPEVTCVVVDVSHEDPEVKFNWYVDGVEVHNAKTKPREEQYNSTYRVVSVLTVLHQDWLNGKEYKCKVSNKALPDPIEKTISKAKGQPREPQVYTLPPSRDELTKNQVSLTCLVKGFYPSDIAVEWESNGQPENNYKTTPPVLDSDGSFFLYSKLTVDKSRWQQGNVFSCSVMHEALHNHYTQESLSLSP
light: B1 light
notes: homodimerized; also called Ho Ab A330_09D
B8: GpH7-B3 variant A330_11K/GpL16-k0 (antibody, human IgG1, kappa)
heavy: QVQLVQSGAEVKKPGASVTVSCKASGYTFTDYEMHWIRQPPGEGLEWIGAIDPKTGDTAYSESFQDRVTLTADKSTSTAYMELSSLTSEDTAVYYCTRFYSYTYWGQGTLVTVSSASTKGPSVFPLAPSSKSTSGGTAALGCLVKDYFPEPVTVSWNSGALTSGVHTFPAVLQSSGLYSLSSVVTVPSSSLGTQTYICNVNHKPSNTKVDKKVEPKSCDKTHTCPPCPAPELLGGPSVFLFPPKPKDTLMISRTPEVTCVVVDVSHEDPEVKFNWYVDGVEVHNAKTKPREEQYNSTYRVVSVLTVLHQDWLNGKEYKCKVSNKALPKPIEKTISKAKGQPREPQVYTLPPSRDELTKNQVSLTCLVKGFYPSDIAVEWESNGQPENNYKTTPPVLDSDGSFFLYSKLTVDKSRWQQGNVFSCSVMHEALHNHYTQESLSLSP
light: B1 light
notes: homodimerized; also called Ho Ab A330_11K
B9: GpH7-B3 variant A330_08L/GpL16-k0 (antibody, human IgG1, kappa)
heavy: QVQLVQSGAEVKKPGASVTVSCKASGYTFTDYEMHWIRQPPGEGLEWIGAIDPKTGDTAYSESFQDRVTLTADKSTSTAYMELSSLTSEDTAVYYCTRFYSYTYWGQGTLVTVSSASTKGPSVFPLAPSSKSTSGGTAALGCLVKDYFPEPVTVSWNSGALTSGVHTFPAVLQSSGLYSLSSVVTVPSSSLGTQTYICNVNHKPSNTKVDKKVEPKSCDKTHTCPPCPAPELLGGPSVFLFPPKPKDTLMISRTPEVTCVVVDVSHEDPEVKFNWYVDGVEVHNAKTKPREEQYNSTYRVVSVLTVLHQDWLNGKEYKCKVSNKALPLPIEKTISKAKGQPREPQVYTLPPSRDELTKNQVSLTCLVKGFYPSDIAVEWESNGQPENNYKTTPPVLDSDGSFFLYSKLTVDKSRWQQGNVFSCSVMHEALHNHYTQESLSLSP
light: B1 light
notes: homodimerized; also called Ho Ab A330_08L; GpH7-B3-20-08L/GpL16-k0
B10: GpH7-B3 variant A327_06M/GpL16-k0 (antibody, human IgG1, kappa)
heavy: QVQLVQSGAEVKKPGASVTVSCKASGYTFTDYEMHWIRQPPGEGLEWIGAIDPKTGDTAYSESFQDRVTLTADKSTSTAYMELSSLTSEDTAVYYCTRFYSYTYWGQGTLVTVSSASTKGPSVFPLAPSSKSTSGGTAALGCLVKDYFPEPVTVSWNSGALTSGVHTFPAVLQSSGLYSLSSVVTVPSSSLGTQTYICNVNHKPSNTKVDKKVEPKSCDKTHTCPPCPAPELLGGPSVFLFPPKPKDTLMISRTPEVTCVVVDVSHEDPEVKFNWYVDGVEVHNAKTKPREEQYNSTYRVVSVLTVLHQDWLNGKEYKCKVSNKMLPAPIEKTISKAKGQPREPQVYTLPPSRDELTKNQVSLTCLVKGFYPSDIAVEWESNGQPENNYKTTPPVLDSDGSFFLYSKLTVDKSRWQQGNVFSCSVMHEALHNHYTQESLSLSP
light: B1 light
notes: homodimerized; also called Ho Ab A327_06M
B11: GpH7-B3 variant A330_05P/GpL16-k0 (antibody, human IgG1, kappa)
heavy: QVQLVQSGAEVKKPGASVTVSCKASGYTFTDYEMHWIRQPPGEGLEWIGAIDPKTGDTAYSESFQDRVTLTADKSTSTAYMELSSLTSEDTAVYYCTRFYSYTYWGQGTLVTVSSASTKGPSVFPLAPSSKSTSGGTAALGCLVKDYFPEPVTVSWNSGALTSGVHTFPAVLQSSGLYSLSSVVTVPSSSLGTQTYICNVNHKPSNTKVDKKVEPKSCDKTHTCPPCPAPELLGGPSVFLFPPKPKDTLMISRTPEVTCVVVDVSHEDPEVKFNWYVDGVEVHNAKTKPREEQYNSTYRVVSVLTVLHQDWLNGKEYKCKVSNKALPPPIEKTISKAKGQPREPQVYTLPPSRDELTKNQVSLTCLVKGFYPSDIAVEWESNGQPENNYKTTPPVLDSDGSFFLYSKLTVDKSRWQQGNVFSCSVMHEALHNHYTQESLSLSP
light: B1 light
notes: homodimerized; also called Ho Ab A330_05P
B12: GpH7-B3 variant A327_13S/GpL16-k0 (antibody, human IgG1, kappa)
heavy: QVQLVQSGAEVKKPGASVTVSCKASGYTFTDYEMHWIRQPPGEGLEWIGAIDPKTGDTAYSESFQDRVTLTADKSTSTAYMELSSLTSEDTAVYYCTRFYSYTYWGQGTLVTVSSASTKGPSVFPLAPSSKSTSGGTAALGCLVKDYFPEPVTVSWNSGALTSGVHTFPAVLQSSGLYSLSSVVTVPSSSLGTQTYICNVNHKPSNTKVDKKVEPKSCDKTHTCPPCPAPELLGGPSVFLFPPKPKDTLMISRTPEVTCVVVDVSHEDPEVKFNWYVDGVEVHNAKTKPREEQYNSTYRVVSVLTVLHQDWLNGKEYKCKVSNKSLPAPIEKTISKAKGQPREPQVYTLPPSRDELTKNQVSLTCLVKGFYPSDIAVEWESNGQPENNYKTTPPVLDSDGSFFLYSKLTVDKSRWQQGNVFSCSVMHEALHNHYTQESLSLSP
light: B1 light
notes: homodimerized; also called Ho Ab A327_13S
B13: GpH7-A5/GpH7-B3 variant P331_16H/GpL16-k0 (antibody, human IgG1, kappa)
heavy 1: not shown
heavy 2: not shown
light: B1 light
notes: heterodimerized; mutation in one H chain; also called He Ab
B14: GpH7-A5/GpH7-B3 variant T335_10E/GpL16-k0 (antibody, human IgG1, kappa)
heavy 1: not shown
heavy 2: not shown
light: B1 light
notes: as for B13
B15: GpH7-A5/GpH7-B3 variant S337_20W/GpL16-k0 (antibody, human IgG1, kappa)
heavy 1: not shown
heavy 2: not shown
light: B1 light
notes: as for B13
B16: GpH7-A5/GpH7-B3 variant P331_02A/GpL16-k0 (antibody, human IgG1, kappa)
heavy 1: not shown
heavy 2: not shown
light: B1 light
notes: as for B13
B17: GpH7-A5/GpH7-B3 variant L328_13S/GpL16-k0 (antibody, human IgG1, kappa)
heavy 1: not shown
heavy 2: not shown
light: B1 light
notes: as for B13
B18: GpH7-A5/GpH7-B3 variant S337_09D/GpL16-k0 (antibody, human IgG1, kappa)
heavy 1: not shown
heavy 2: not shown
light: B1 light
notes: as for B13
B19: GpH7-A5/GpH7-B3 variant S337_03V/GpL16-k0 (antibody, human IgG1, kappa)
heavy 1: not shown
heavy 2: not shown
light: B1 light
notes: as for B13
B20: GpH7-A5/GpH7-B3 variant K334_13S/GpL16-k0 (antibody, human IgG1, kappa)
heavy 1: not shown
heavy 2: not shown
light: B1 light
notes: as for B13
B21: GpH7-A5/GpH7-B3 variant P331_04F/GpL16-k0 (antibody, human IgG1, kappa)
heavy 1: not shown
heavy 2: not shown
light: B1 light
notes: as for B13
B22: GpH7-A5/GpH7-B3 variant S267_06M/GpL16-k0 (antibody, human IgG1, kappa)
heavy 1: not shown
heavy 2: not shown
light: B1 light
notes: as for B13
B23: GpH7-A5/GpH7-B3 variant P238_04F/GpL16-k0 (antibody, human IgG1, kappa)
heavy 1: not shown
heavy 2: not shown
light: B1 light
notes: as for B13
B24: GpH7-A5/GpH7-B3 variant T335_07I/GpL16-k0 (antibody, human IgG1, kappa)
heavy 1: not shown
heavy 2: not shown
light: B1 light
notes: as for B13
B25: GpH7-A5/GpH7-B3 variant P331_15Y/GpL16-k0 (antibody, human IgG1, kappa)
heavy 1: not shown
heavy 2: not shown
light: B1 light
notes: as for B13
B26: GpH7-A5/GpH7-B3 variant K334_05P/GpL16-k0 (antibody, human IgG1, kappa)
heavy 1: not shown
heavy 2: not shown
light: B1 light
notes: as for B13

The first test deals with T1, FcγRIa (human, UniProt P12314 16-292).
T1 construct: extracellular domain; also called FcgRI; CD64
T1 sequence (P12314 16-292): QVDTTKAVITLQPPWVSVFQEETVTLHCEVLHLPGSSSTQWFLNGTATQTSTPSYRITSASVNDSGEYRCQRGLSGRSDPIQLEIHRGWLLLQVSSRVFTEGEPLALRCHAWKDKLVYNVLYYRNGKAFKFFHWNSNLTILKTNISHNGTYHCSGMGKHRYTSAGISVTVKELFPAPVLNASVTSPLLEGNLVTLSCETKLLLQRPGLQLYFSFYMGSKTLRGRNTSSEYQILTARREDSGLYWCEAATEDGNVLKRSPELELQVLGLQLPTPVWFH
The test can be described thus: SPR; vs GpH7-B3/GpL16-k0=100. A general note: SPR reads the build-up and loss of mass on a sensor chip optically.
As for B1, the Ho/Con_1a is 102 % of control. In the case of B2, the Ho/Con_1a is 94.4 % of control.

With B3, the Ho/Con_1a was 105 % of control.

For B4, the Ho/Con_1a was 102 % of control. For B5, the Ho/Con_1a is 95.5 % of control. In the case of B6, the Ho/Con_1a was 98.8 % of control. As for B7, the Ho/Con_1a was 108 % of control. In the case of B8, the Ho/Con_1a is 94.1 % of control. With B9, the Ho/Con_1a was 106 % of control. As for B10, the Ho/Con_1a is 93.1 % of control. On to B11, for which the Ho/Con_1a is 84.4 % of control. Take B12: the Ho/Con_1a is 86.1 % of control.

In another test the target is T2, FcγRIIa R (extracellular domain with a His tag at the C terminus) (human, UniProt P12318 34-217).
T2 construct: extracellular domain; expressed in FreeStyle293 cells; also called FcgRIIa R; FcγRIIa type R; not shown: His tag at the C terminus
T2 sequence (looked up): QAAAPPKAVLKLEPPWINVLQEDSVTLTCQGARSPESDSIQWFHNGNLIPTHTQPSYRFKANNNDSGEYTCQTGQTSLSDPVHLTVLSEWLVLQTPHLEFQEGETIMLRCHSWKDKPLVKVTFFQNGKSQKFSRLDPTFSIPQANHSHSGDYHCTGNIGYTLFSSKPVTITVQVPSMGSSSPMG
The test can be described thus: SPR Biacore, relative binding.
As to B13, the He/Con_2aR was 114 % of GpH7-A5/GpH7-B3/GpL16-k0 (=100). As for B14, the He/Con_2aR is 111 % of GpH7-A5/GpH7-B3/GpL16-k0 (=100). B15: the He/Con_2aR is 110 % of GpH7-A5/GpH7-B3/GpL16-k0 (=100).

Turning to B16, the He/Con_2aR was 106 % of GpH7-A5/GpH7-B3/GpL16-k0 (=100). Turning to B17, the He/Con_2aR is 117 % of GpH7-A5/GpH7-B3/GpL16-k0 (=100). With B18, the He/Con_2aR is 115 % of GpH7-A5/GpH7-B3/GpL16-k0 (=100). With B19, the He/Con_2aR was 106 % of GpH7-A5/GpH7-B3/GpL16-k0 (=100). With B20, the He/Con_2aR was 109 % of GpH7-A5/GpH7-B3/GpL16-k0 (=100). Same read-out and setting: then B21, with 111 % of GpH7-A5/GpH7-B3/GpL16-k0 (=100); and B22, with 122 % of GpH7-A5/GpH7-B3/GpL16-k0 (=100). In the case of B23, the He/Con_2aR is 174 % of GpH7-A5/GpH7-B3/GpL16-k0 (=100). The same measure, in the same setting: then B24, with 109 % of GpH7-A5/GpH7-B3/GpL16-k0 (=100). For B25, the He/Con_2aR is 112 % of GpH7-A5/GpH7-B3/GpL16-k0 (=100). Still for that read-out and setting: under B26 stands 103 % of GpH7-A5/GpH7-B3/GpL16-k0 (=100).
